Measured values reported in US6642040B2, “Human cGMP-stimulated cyclic nucleotide phosphodiesterase” (The Board of Regents of the University of Washington, priority 1991, dated 2003).

How the values were obtained:
calmodulin = calmodulin (Homo sapiens, UniProt P0DP23); details: cited from earlier work
cAMP and cGMP hydrolysis [1] = test: PDE activity of homogenates of COS-7 cells transfected with 61 kDa CaM-PDE cDNA; type: biochemical, bovine; details: COS-7 cell extracts
cGS-PDE activity = cGS-PDE activity of membrane and supernatant fractions of transfected COS-7 cells; type: biochemical, bovine
Description: Transient expression of the CGS-PDE cDNA in COS-7 cells was accomplished as in Example I. A 4.2 kb fragment of p3CGS-5 was isolated using HindIII and NotI and was inserted into plasmid pCDM8, which had been digested with the same enzymes. The character of products produced in COS-7 cells transformed with the p3CGS-5/pCDM8 construct is discussed in Example V, infra.
For transient expression in COS-7 cells, a 3.8 kb fragment of pBBCGSPDE-7 was isolated using HindIII and NotI and inserted into plasmid pCDM8 which had been cut with HindIII and NotI restriction endonucleases. The recombinant pBBCGSPDE-7/CDM8 construct was used to transiently transfect COS-7 cells. The properties of the pBBCGSPDE-7/CDM8 construct and the p3CGS-5/CDM8 construct prepared in Example IV products were subsequently compared. Membrane and supernatant fractions were prepared from extracts of transfected COS-7 cells and assayed for cGS-PDE activity. […] However, a 10-fold greater percentage of total cGS-PDE activity was detected in membranes from COS-7 cell extracts transfected with the pBBCGSPDE-7/CDM8 construct than in membranes prepared from p3CGS-5/CDM8-transfected COS-7 cells.

cAMP and cGMP hydrolysis [2] = test: CaM-dependent PDE activity of homogenates of COS-7 cells transfected with 63 kDa CaM-PDE cDNA; type: biochemical, bovine; details: COS-7 cell homogenates
Method: COS cells were scraped from the plates and homogenized in a buffer containing 40 mM Tris-HCl (pH=7.5), 5 mM EDTA, 15 mM benzamidine, 15 mM beta-mercaptoethanol, 1 μg per ml pepstatin A and 1 μg per ml peupeptin using a Dounce homogenizer (1 ml per 100 mm plate). Homogenates were assayed for PDE activity according to the procedures of Hanson et al., Proc. Nat'l. Acad. Sci. U.S.A., 79:2788-2792 (1982), using [^3H]cGMP as the substrate. Reactions were carried out at 300 for 10 minutes in a buffer containing 20 mM Tris-HCl (pH=7.5), 20 mM imidazole (pH=7.5), 3 mM MgCl2, 15 mM Mg acetate, 0.2 mg per ml BSA and 1 μM ^3H-cAMP with either 2 mM EGTA or 0.2 mM CaCl2 and 4 μg per ml CaM. Assays were stopped by incubating the tubes in a 900 water bath for 1 minute. After cooling, 10 μl of 2.5 mg per ml snake venom was added to each assay and incubated at 370 for 5 minutes. […] Samples were counted for 1 minute using a Packard Model 1600TR scintillation counter. Specific cyclic nucleotide hydrolytic activity was expressed as picomoles cAMP or cGMP hydrolyzed per minute per mg protein. […]
COS-7 cells were transfected with the p12.3.a/CDM8 construct or mock transfected with the CDM8 vector alone using the DEAE-dextran method as described in Example 1. […] CaM-dependent and independent activities were determined as in Example 1.

B1: 59 kDa isozyme: 59 kDa CaM-PDE isozyme isolated from bovine heart (protein, UniProt P14100 1-530, looked up)
Dual specificity …: MGSTATETEELENTTFKYLIGEQTEKMWQRLKGILRCLVKQLEKGDVNVIDLKKNIEYAASVLEAVYIDETRRLLDTDDELSDIQSDSVPSEVRDWLASTFTRKMGMMKKKSEEKPRFRSIVHVVQAGIFVERMYRKSYHMVGLAYPEAVIVTLKDVDKWSFDVFALNEASGEHSLKFMIYELFTRYDLINRFKIPVSCLIAFAEALEVGYSKYKNPYHNLIHAADVTQTVHYIMLHTGIMHWLTELEILAMVFAAAIHDYEHTGTTNNFHIQTRSDVAILYNDRSVLENHHVSAAYRLMQEEEMNVLINLSKDDWRDLRNLVIEMVLSTDMSGHFQQIKNIRNSLQQPEGLDKAKTMSLILHAADISHPAKSWKLHHRWTMALMEEFFLQGDKEAELGLPFSPLCDRKSTMVAQSQIGFIDFIVEPTFSLLTDSTEKIIIPLIEEDSKTKTPSYGASRRSNMKGTTNDGTYSPDYSLASVDLKSFKNSLVDIIQQNKERWKELAAQGEPDPHKNSDLVNAEEKHAETHS
affinity for calmodulin relative to the 61 kDa brain isozyme (calmodulin): 10-20 fold

B2: pCAM-40: expression product of plasmid pCAM-40, full length bovine brain 61 kDa CaM-PDE (SEQ ID NO: 6) (protein)
chain: MGSTATETEELENTTFKYLIGEQTEKMWQRLKGILRCLVKQLEKGDVNVIDLKKNIEYAASVLEAVYIDETRRLLDTDDELSDIQSDSVPSEVRDWLASTFTRKMGMMKKKSEEKPRFRSIVHVVQAGIFVERMYRKSYHMVGLAYPEAVIVTLKDVDKWSFDVFALNEASGEHSLKFMIYELFTRYDLINRFKIPVSCLIAFAEALEVGYSKYKNPYHNLIHAADVTQTVHYIMLHTGIMHWLTELEILAMVFAAAIHDYEHTGTTNNFHIQTRSDVAILYNDRSVLENHHVSAAYRLMQEEEMNVLINLSKDDWRDLRNLVIEMVLSTDMSGHFQQIKNIRNSLQQPEGLDKAKTMSLILHAADISHPAKSWKLHHRWTMALMEEFFLQGDKEAELGLPFSPLCDRKSTMVAQSQIGFIDFIVEPTFSLLTDSTEKIIIPLIEEDSKTKTPSYGASRRSNMKGTTNDGTYSPDYSLASVDLKSFKNSLVDIIQQNKERWKELAAQGEPDPHKNSDLVNAEEKHAETHS
cAMP and cGMP hydrolytic activities compared to mock transfected cells (cAMP and cGMP hydrolysis [1]; in the presence of EGTA): significantly greater | effect of calcium and CaM on cAMP and cGMP hydrolysis (cAMP and cGMP hydrolysis [1]; in the presence of calcium and CaM): stimulation

B3: pBBCGSPDE-7/CDM8: expression product of bovine brain cGS-PDE cDNA (SEQ ID NO: 43) (protein)
chain: MGQACGHSILCRSQQYPAARPAEPRGQQVFLKPDEPPPPPQPCADSLQDALLSLGSVIDVAGLQQAVKEALSAVLPKVETVYTYLLDGESRLVCEEPPHELPQEGKVREAVISRKRLGCNGLGPSDLPGKPLARLVAPLAPDTQVLVIPLVDKEAGAVAAVILVHCGQLSDNEEWSLQAVEKHTLVALKRVQALQQRESSVAPEATQNPPEEAAGDQKGGVAYTDQDRKILQLCGELYDLDASSLQLKVLQYLQQETQASRCCLLLVSEDNLQLSCKVIGDKVLEEEISFPLTTGRLGQVVEDKKSIQLKDLTSEDMQQLQSMLGCEVQAMLCVPVISRATDQVVALACAFNKLGGDLFTDQDEHVIQHCFHYTSTVLTSTLAFQKEQKLKCECQALLQVAKNLFTHLDDVSVLLQEIITEARNLSNAEICSVFLLDQNELVAKVFDGGVVEDESYEIRIPADQGIAGHVATTGQILNIPDAYAHPLFYRGVDDSTGFRTRNILCFPIKNENQEVIGVAELVNKINGPWFSKFDEDLATAFSIYCGISIAHSLLYKKVNEAQYRSHLANEMMMYHMKVSDDEYTKLLHDGIQPVAAIDSNFASFTYTPRSLPEDDTSMAILSMLQDMNFINNYKIDCPTLARFCLMVKKGYRDPPYHNWMHAFSVSHFCYLLYKNLELTNYLEDMEIFALFISCMCHDLDHRGTNNSFQVASKSVLAALYSSEGSVMERHHFAQAIAILNTHGCNIFDHFSRKDYQRMLDLMRDIILATDLAHHLRIFKDLQKMAEVGYDRTNKQHHSLLLCLLMTSCDLSDQTKGWKTTRKIAELIYKEFFSQGDLEKAMGNRPMEMMDREKAYIPELQISFMEHIAMPIYKLLQDLFPKAAELYERVASNREHWTKVSHKFTIRGLPSNNSLDFLDEEYEVPDLDGARAPINGCCSLDAE
percentage of total cGS-PDE activity detected in membranes, relative to p3CGS-5/CDM8-transfected cells (cGS-PDE activity; membranes from COS-7 cell extracts): 10 fold | cGS-PDE activity in COS-7 cell extracts (cGS-PDE activity; most of the activity in supernatant fractions): produced cGS-PDE activities

B4: p12.3.a: expression product of bovine brain 63 kDa CaM-PDE cDNA clone (SEQ ID NO: 27) (protein)
chain: MELSPRSPPEMLESDCPSPLELKSAPSKKMWIKLRSLLRYMVKQLENGEVNIEELKKNLEYTASLLEAVYIDETRQILDTEDELQELRSDAVPSEVRDWLASTFTQQTRAKGPSEEKPKFRSIVHAVQAGIFVERMFRRTYTSVGPTYSTAVLNCLKNVDLWCFDVFSLNRAADDHALRTIVFELLTRHNLISRFKIPTVFLMTFLDALETGYGKYKNPYHNQIHAADVTQTVHCFLLRTGMVHCLSEIEVLAIIFAAAIHDYEHTGTTNSFHIQTKSECAILYNDRSVLENHHISSVFRMMQDDEMNIFINLTKDEFVELRALVIEMVLATDMSCHFQQVKSMKTALQQLERIDKSKALSLLLHAADISHPTKQWSVHSRWTKALMEEFFRQGDKEAELGLPFSPLCDRTSTLVAQSQIGFIDFIVEPTFSVLTDVAEKSVQPTGDDDSKSKNQPSFQWRQPSLDVEVGDPNPDVVSFRSTWTKYIQENKQKWKERAASGITNQMSIDELSPCEEEAPASPAEDEHNQNGNLD
increase in CaM-stimulated cAMP phosphodiesterase activity over basal levels (cAMP and cGMP hydrolysis [2]): 15 fold | increase in CaM-stimulated cGMP phosphodiesterase activity over basal levels (cAMP and cGMP hydrolysis [2]): 12 fold
